From publication PMC6205632 (Nature structural & molecular biology, 2017)

Biological target: the molecule itself
Assay: SEC

B1: MDM2 RING homodimer (MDM2 428-C), tag removed (domain or fragment)
chain: SSLPLNAIEPCVICQGRPKNGCIVHGKTGHLMACFTCAKKLKKRNKPCPVCRQPIQMIVLTYFP
  binding result: binds
